The results in this text go back to patent US20040033952A1 (published 2004).

A value given as a limit tells only on which side of the number the result lay.

One assay addresses T1, human IGFBP-1 (human, UniProt P08833 26-259).
T1 construct: mature; also called IGFBP-I
T1 sequence (looked up): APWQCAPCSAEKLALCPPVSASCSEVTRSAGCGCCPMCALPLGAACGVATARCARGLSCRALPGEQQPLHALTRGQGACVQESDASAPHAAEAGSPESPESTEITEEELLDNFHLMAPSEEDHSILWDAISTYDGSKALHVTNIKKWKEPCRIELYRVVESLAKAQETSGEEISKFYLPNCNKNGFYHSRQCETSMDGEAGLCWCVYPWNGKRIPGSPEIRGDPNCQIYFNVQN
The assay can be described thus: competitive phage ELISA. Here is the method: (§1) E. coli cells (XL1-Blue, Stratagene) freshly transformed with phagemid vector were grown overnight in 5 mL 2YT medium (Sambrook et al., supra) in the presence of M13-VCS helper phage (Stratagene). Phage particles were harvested and resuspended in PBS buffer as described in Lowman, H. B., “Phage Display of Peptide Libraries on Protein Scaffolds,” in Cabilly, S. (ed.), Combinatorial Peptide Library Protocols (Humana Press Inc.: Totowa, N.J., 1998), pp. 249-264. Then phage concentrations were normalized to yield a maximal ELISA signal of 0.2-0.4 for each mutant (Lowman, in Cabilly, S. (ed.), supra). Threefold serial dilutions of soluble competitor were prepared on non-absorbent microtiter plates (Nune, F, 96 wells) with binding buffer (0.5% TWEEN™ 20/PBS) containing phage at the previously-determined concentrations. The dilution range of competitor protein extended over six orders of magnitude, starting at 5 μM for IGFBP-1 and 500 nM for IGFBP-3. After blocking, the plates containing immobilized target were washed with 0.05% TWEEN™/PBS buffer and subsequently incubated with 80 μl/well of the premixed phage-competitor solutions for 1 hour at room temperature. After washing, bound phage was detected with 80 μl/well of a solution containing a primary rabbit anti-phage polyclonal antibody and a secondary goat anti-rabbit monoclonal antibody-horseradish peroxidase conjugate in 0.5% TWEEN20™/PBS. o-Phenylenediamine (Sigma) and tetramethylbenzidine (Kirkegaard and Perry) were used as chromogenic substrates, resulting in product detection at 492 and 450 nm, respectively. IC₅₀ values were determined by fitting the binding data to a generic saturation curve (Lowman, in Cabilly, S. (ed.), supra).
(In general: An ELISA detects its analyte on a solid surface through an enzyme-linked reagent.)

Assay [1] addresses T2, recombinant human IGFBP-3 (human, UniProt P17936 28-291).
T2 construct: mature
The assay can be described thus: competitive phage ELISA. Here is the method: as §1

The target in assay [2] is T3, human IGFBP-1 (human), P08833.
T3 chain: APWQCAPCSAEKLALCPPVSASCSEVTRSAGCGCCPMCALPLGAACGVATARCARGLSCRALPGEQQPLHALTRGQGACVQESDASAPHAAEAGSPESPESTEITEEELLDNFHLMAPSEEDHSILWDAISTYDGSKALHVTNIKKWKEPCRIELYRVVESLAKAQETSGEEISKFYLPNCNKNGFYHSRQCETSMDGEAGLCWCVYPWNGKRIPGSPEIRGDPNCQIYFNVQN
The assay can be described thus: competitive phage ELISA, IGFBP-3-coated wells, soluble IGFBP-1 as competitor (FIG. 3A). As to conditions: remark: other sources report otherwise.

The target is the same in assay [3]. The assay can be described thus: competitive phage ELISA. As to conditions: remark: other sources report otherwise.

T2 sequence (P17936 28-291): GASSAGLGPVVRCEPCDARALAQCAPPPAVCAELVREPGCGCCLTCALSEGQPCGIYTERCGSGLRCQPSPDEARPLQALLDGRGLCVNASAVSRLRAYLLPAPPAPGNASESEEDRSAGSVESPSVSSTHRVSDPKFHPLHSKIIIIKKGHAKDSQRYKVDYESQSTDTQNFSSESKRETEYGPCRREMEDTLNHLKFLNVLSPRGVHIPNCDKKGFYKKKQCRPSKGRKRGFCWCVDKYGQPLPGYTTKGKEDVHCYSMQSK

“IGF-I L5A (phage-displayed) (from UniProt P69168 267-424) (ligand)”: the results for the relative IC50 (IC50 mut/IC50 G1S-A70V) (in the assay with human IGFBP-1; in assay [1]) were 6.7 and 2, respectively.

B1: IGF-I F49A (phage-displayed), P07455 51-118 (ligand, not shown: large carriers; small tags and cut ends)
chain: SPETLCGAELVDALQFVCGDRGFYFNKPTGYGSSSRRAPQTGIVDECCARSCDLRRLEMYCAPLKPAKSV
For B1, in assay [2], the shift of the binding curve against G1S-A70V phage was over 100 fold. This molecule also had a relative IC50 (IC50 mut/IC50 G1S-A70V) in assay [3] of over 100.

B2: Ala(1-3)-IGF-I (phage-displayed triple alanine mutant) (ligand)
chain: AAATLCGAELVDALQFVCGDRGFYFNKPTGYGSSSRRAPQTGIVDECCFRSCDLRRLEMYCAPLKPAKSV
Consider B2, for which the IC50 – broadly, the midpoint of a concentration-inhibition curve – with human IGFBP-1 came out at 90.4 nM; in assay [1] it was 1.12 nM.

B3: IGF-I G7A (phage-displayed) (ligand)
chain: SPETLCAAELVDALQFVCGDRGFYFNKPTGYGSSSRRAPQTGIVDECCFRSCDLRRLEMYCAPLKPAKSV
notes: G1S-A70V template; monovalent M13 display; not shown: M13 gene III fragment (residues 249-406), the display carrier, and its junction to IGF-I
In the case of B3, the IC50 in assay [1] worked out at 4.58 nM.
